The target in one test is His6-JAK2 JH1 (836-1132), phosphorylated (JAK2^pY1007/pY1008) (mouse) (UniProt Q62120).
Sequence of UniProt Q62120 (Q62120 836-1132): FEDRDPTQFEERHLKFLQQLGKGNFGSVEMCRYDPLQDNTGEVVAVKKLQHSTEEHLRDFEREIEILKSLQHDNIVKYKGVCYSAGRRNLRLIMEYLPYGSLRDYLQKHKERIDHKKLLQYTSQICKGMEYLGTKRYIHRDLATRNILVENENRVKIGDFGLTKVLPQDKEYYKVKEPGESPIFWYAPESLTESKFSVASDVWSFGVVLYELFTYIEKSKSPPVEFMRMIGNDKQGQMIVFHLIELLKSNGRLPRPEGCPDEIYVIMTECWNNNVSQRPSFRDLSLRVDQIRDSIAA
isolated KIR peptide from SOCS1 showed an IC50 of inhibition of JAK2 kinase activity by the isolated peptide of 0.1 mM.

For a further test the target is unchanged. This is another data set of the same source.
“SOCS3 L22F / elonginBC complex (from UniProt O35718 22-225; Q15370 1-118; Q15369 1-112)”: the IC50^mutant/IC50^WT, inhibition of JAK2 JH1 kinase activity is 0.1 ratio to WT.
As for “SOCS3 A50K / elonginBC complex (from UniProt O35718 22-225; Q15370 1-118; Q15369 1-112)”, the IC50^mutant/IC50^WT, inhibition of JAK2 JH1 kinase activity is 6 ratio to WT.
On to “SOCS3 E30A / elonginBC complex (from UniProt O35718 22-225; Q15370 1-118; Q15369 1-112)”, for which the IC50^mutant/IC50^WT, inhibition of JAK2 JH1 kinase activity is 23 ratio to WT.
The same measure, in the same setting: for “SOCS3 T24A / elonginBC complex (from UniProt O35718 22-225; Q15370 1-118; Q15369 1-112)” the value was 3.3 ratio to WT; for “SOCS3 L22A / elonginBC complex (from UniProt O35718 22-225; Q15370 1-118; Q15369 1-112)”, 1.2 ratio to WT; for “SOCS3 T52A / elonginBC complex (from UniProt O35718 22-225; Q15370 1-118; Q15369 1-112)”, 10 ratio to WT.
Still for that read-out and setting: the result for “SOCS3^22-225 / elonginBC complex (wild type) (from UniProt O35718;Q15370;Q15369)” reads 1 ratio to WT; that for “SOCS3 K28A / elonginBC complex (from UniProt O35718 22-225; Q15370 1-118; Q15369 1-112)”, 2.8 ratio to WT.
On the same count and under the same terms, for “SOCS3 S26A / elonginBC complex (from UniProt O35718 22-225; Q15370 1-118; Q15369 1-112)” the value was 1 ratio to WT; for “SOCS3 Y47F / elonginBC complex (from UniProt O35718 22-225; Q15370 1-118; Q15369 1-112)”, 80 ratio to WT; for “SOCS3 Y31A / elonginBC complex (from UniProt O35718 22-225; Q15370 1-118; Q15369 1-112)”, 6 ratio to WT.
On to “SOCS3 A50E / elonginBC complex (from UniProt O35718 22-225; Q15370 1-118; Q15369 1-112)”, for which the IC50^mutant/IC50^WT, inhibition of JAK2 JH1 kinase activity is 1.1 ratio to WT.
The same measure, in the same setting: the result for “SOCS3 S27A / elonginBC complex (from UniProt O35718 22-225; Q15370 1-118; Q15369 1-112)” reads 2.5 ratio to WT; that for “SOCS3 S29A / elonginBC complex (from UniProt O35718 22-225; Q15370 1-118; Q15369 1-112)”, 2 ratio to WT; that for “SOCS3 R77A / elonginBC complex (from UniProt O35718 22-225; Q15370 1-118; Q15369 1-112)”, 1.4 ratio to WT.
“SOCS3 K23A / elonginBC complex (from UniProt O35718 22-225; Q15370 1-118; Q15369 1-112)”: the IC50^mutant/IC50^WT, inhibition of JAK2 JH1 kinase activity is 1.4 ratio to WT.
